Test results from the supplement of paper PMC10126150.
± gives the standard deviation of the averaged measurements.

System: ATP
Test: switch fluorescence ratio, 500 uM ATP over buffer (Cy3 cluster intensity, sum of 5 cycles each) (fold (ratio)); higher = stronger signal-on switching upon ATP binding; sequences stand for … in TCGTCGGCAGCGTCAGATGTGTATAAGAGACAGTTTTTTTTTTTTTTTTTTTTTTTTT…TC
Settings: aptamer strand: ATP DNA aptamer (quencher-CACCTGGGGGAGTATTGCGGAGGAAGG + anchor), 100 nM annealed; ATP concentration: 500 uM
In short: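 Clusters carrying Cy3-labelled switching strands on a modified Illumina MiSeq flow-cell were annealed to 100 nM quencher-labelled ATP aptamer and imaged in selection buffer. They were imaged again after 15 min with 500 uM ATP at 22 °C, over five buffer/ATP cycles with NaOH stripping and re-annealing in between. For each cluster, the fluorescence ratio is the summed Cy3 intensity of the target cycles divided by that of the buffer cycles, averaged per switch-domain sequence. Clusters outside 100-1000 RFU were left out.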
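Also: ATP exposure 15 min at 22 °C before imaging.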

| Sequence | switch fluorescence ratio |
| --- | --- |
| AATTGCCAGA | 1.02 ± 0.02 |
| GAAGGTGAGG | 1.01 ± 0.019 |
| AAAAACTCTG | 1.01 ± 0.079 |
| TTTTTTCTAT | 0.996 ± 0.067 |
| CGAACTGGGT | 1.03 ± 0.028 |
| TATAGTCTTC | 0.959 ± 0.027 |
| AGAAAGTTAA | 0.9856 ± 0.0047 |
| GAAATTTTTT | 1 ± 0.034 |
| CGGGGTATTT | 1 ± 0.022 |
| ATGAGGCCGG | 1.12 ± 0.066 |
| AAAAGTCCGC | 1.45 ± 0.062 |
| AGCCGCTTCA | 0.9803 ± 0.0053 |
| ATGGTACACC | 1.04 ± 0.013 |
| AGAAGGGTGT | 1.02 ± 0.017 |
| AGGGGATAGC | 1.01 ± 0.017 |
| TACGTTTTTC | 1.003 ± 0.0048 |
| CATGAATTTT | 0.982 ± 0.047 |
| GATATTTGGA | 0.996 ± 0.041 |
| TTAGGGGGAT | 0.988 ± 0.019 |
| ACGGGCCTTC | 1.03 ± 0.012 |
| AAGAAGTTTT | 1 ± 0.035 |
| AGGGAATTGG | 1.01 ± 0.044 |
| ACAGAGGCAC | 1.02 ± 0.062 |

| Sequence | switch fluorescence ratio |
| --- | --- |
| TTACAGCATT | 1.07 ± 0.067 |
| ATAGGGGAAT | 0.9872 ± 0.0072 |
| ATCCTATTT | 1.01 ± 0.028 |
| TGGGGGGATA | 0.994 ± 0.045 |
| GGGTCGGGAG | 0.979 ± 0.027 |
| GATATTTTA | 0.9929 ± 0.0069 |
| AATTGGATGG | 1.02 ± 0.047 |
| TCCGACTGAT | 1.72 ± 0.05 |
| GTTGTGCTGA | 1.02 ± 0.0085 |
| TAAGCTGCGT | 0.989 ± 0.03 |
| CGGGGCGGGA | 1.01 ± 0.021 |
| ACTTTGTTTT | 1 ± 0.022 |
| TTTGAGTGCG | 0.973 ± 0.025 |
| TAGTTGGGGT | 1 ± 0.03 |
| CGATTCAACG | 1.02 ± 0.012 |
| TGGTTCGTTT | 0.995 ± 0.055 |
| TGGGGGACTC | 0.988 ± 0.023 |
| GTTGGGTAGT | 0.9962 ± 0.006 |
| CCGTTGTGGT | 1.05 ± 0.068 |
| ATAGACGTTA | 1.07 ± 0.049 |
| TTAAAAGTTA | 1.03 ± 0.044 |
| CGTTCCGGGT | 1.02 ± 0.036 |
| TGATCATGCG | 1 ± 0.011 |

| Sequence | switch fluorescence ratio |
| --- | --- |
| ATGCAATGTC | 1.38 ± 0.22 |
| TAGTTGGTCT | 0.974 ± 0.028 |
| CGTGTAGGGA | 1.06 ± 0.029 |
| TTGTTGATGC | 1.14 ± 0.021 |
| CAGGGGGTAT | 0.997 ± 0.026 |
| ATGGGTCTGC | 1.16 ± 0.31 |
| GGGACATTCA | 1.03 ± 0.023 |
| AGACCTAAAG | 1.05 ± 0.069 |
| ATGGGCTCAG | 1.005 ± 0.0033 |
| CGGAGGAGCA | 0.968 ± 0.061 |
| GCACTTGGTC | 0.989 ± 0.011 |
| GGGGCTGCTT | 0.9718 ± 0.0035 |
| AATTTGTGCG | 0.991 ± 0.012 |
| ATGTTTTAGG | 1.01 ± 0.047 |
| TTGAGGTACG | 1.03 ± 0.082 |
| TTTAGGTTCG | 0.972 ± 0.028 |
| GTAGTAAAAC | 1.69 ± 0.087 |
| GGGTTGCTGT | 1.03 ± 0.1 |
| ATTTATGGTA | 0.971 ± 0.014 |
| TCTGGATAGG | 0.9625 ± 0.0058 |
| ATCATTTAAT | 1.009 ± 0.0054 |
| GAGCTTCTTG | 1.017 ± 0.0063 |
| AGAGTGTATG | 1.006 ± 0.0086 |

| Sequence | switch fluorescence ratio |
| --- | --- |
| GAAGGAGGGC | 0.995 ± 0.085 |
| TGGGTTTGCG | 0.982 ± 0.021 |
| GGAGCACGTG | 1.12 ± 0.058 |
| TATTATATTT | 1 ± 0.0046 |
| TAATGGGAAA | 1.04 ± 0.013 |
| TCTTGGTTGA | 0.968 ± 0.02 |
| TATGTGGGTC | 1.02 ± 0.035 |
| AAGGGCAGGG | 1.03 ± 0.029 |
| GGCCTAAATT | 0.989 ± 0.031 |
| ATGGGGGATA | 0.973 ± 0.041 |
| TTACCTTAGT | 1.06 ± 0.034 |
| AACTGGATAT | 1.04 ± 0.017 |
| TCCAGTTAGG | 0.998 ± 0.051 |
| AGGAATTTTA | 0.9554 ± 0.0062 |
| TCTTGTTTGA | 1.008 ± 0.0059 |
| AGGTTGTGCT | 0.9644 ± 0.009 |
| CATTTTGTGC | 0.988 ± 0.052 |
| ATGAGGGT | 1.01 ± 0.015 |
| AGTCCAGTTT | 0.986 ± 0.013 |
| GTTGTGTTTT | 1.01 ± 0.026 |
| GCTATGGTGC | 1.026 ± 0.0038 |
| ATGAAATTTT | 1.0061 ± 0.00088 |
| TTTTGGAGAT | 1.01 ± 0.027 |

| Sequence | switch fluorescence ratio |
| --- | --- |
| AGCTACCTTA | 1.09 ± 0.05 |
| AAGCGGTGAG | 0.989 ± 0.031 |
| AAAGCATAAC | 1.91 ± 0.14 |
| TTATAAGGGA | 0.977 ± 0.049 |
| CAAGTTCGTG | 1.002 ± 0.0089 |
| CTTATAGCGC | 1.007 ± 0.0066 |
| GGCGCGCATT | 1.02 ± 0.018 |
| CGTGTAAGGC | 0.993 ± 0.025 |
| TGTAAGTAGG | 1.04 ± 0.025 |
| CCCTCGCGGT | 1.78 ± 0.027 |
| GACTAGTATA | 1.01 ± 0.04 |
| TTTCGTATCG | 1.01 ± 0.021 |
| ATACTCAGCC | 1.14 ± 0.041 |
| CAGGGCGTAT | 1 ± 0.026 |
| TTGTTATGGC | 0.9795 ± 0.0059 |
| CTTCGGGCGA | 1.1 ± 0.023 |
| GCGAGCGAAA | 0.982 ± 0.019 |
| TGTTGGGTGT | 1.01 ± 0.031 |
| TCAAAATGCT | 1.09 ± 0.058 |
| TGTGGGTGGG | 0.978 ± 0.025 |
| TAGGCGGCGA | 1 ± 0.022 |
| TAGTAGTGTG | 0.9625 ± 0.001 |
| GGGCAAAGGA | 0.993 ± 0.011 |

| Sequence | switch fluorescence ratio |
| --- | --- |
| TCAACCGTTT | 1.02 ± 0.065 |
| CCGGGGGCGA | 2.64 ± 1.4 |
| CAGTTTTAGT | 1.01 ± 0.032 |
| ATGTGTATTG | 0.985 ± 0.025 |
| CGGTGCGGGC | 1 ± 0.09 |
| TAAATTAGGG | 0.992 ± 0.033 |
| TTAAGAGAGG | 1.01 ± 0.013 |
| CGAATATTTG | 0.996 ± 0.026 |
| ACACTCATTG | 1.06 ± 0.074 |
| TTTGCTTACG | 1.1 ± 0.13 |
| TAGCAGGTTA | 1 ± 0.016 |
| TATTTGACG | 1.02 ± 0.035 |
| GGGGCCTTGG | 1.01 ± 0.022 |
| GCCGACAAGC | 1.05 ± 0.083 |
| AAGGTTAAGG | 0.993 ± 0.025 |
| ACTTGCGGGC | 1.03 ± 0.021 |
| TACTGACGAA | 1.27 ± 0.11 |
| GATGAATGTC | 1.04 ± 0.13 |
| ATGTCATAAA | 1.0269 ± 0.0006 |
| CAGTAGGGAG | 0.987 ± 0.022 |
| GGGGGACAGA | 0.969 ± 0.013 |
| CCTGGAGTTA | 1.04 ± 0.1 |
| CAAGGAGGGA | 1.01 ± 0.049 |

| Sequence | switch fluorescence ratio |
| --- | --- |
| AGCATGGTAG | 1.02 ± 0.031 |
| CGTCCGGTCG | 1.02 ± 0.064 |
| CGCGGGAAAA | 1.01 ± 0.099 |
| TCAGTTATTT | 1.04 ± 0.055 |
| GGCATGTTTG | 0.9917 ± 0.0027 |
| TTTACGTGGA | 1.02 ± 0.028 |
| AATGGCAGTC | 1.03 ± 0.05 |
| GGAATGGTTT | 0.987 ± 0.064 |
| GACGTGTGTC | 0.983 ± 0.023 |
| GCGATAGCTC | 0.973 ± 0.043 |
| TTTTTCTTGT | 1.01 ± 0.047 |
| AGTTTCTTAT | 0.995 ± 0.028 |
| TGGGGTCAAG | 0.991 ± 0.01 |
| CAGGATGCCC | 0.9871 ± 0.0066 |
| GGGATGTGGG | 1 ± 0.013 |
| CACAAGCACT | 1.28 ± 0.069 |
| CCTTTTCAGG | 1.03 ± 0.023 |
| TGTGGCGATT | 1.02 ± 0.016 |
| AGGTGTTGGG | 1.01 ± 0.035 |
